B1: 33A8 (antibody, V domains shown)
VH: QSLEESGGGLVQPEGSLTLTCKASGFSFINNNHICWVRQAPGKGLEWIACIYAGSTGYTYYANWAKGRFTISKTSSTTVTLQMTSLTAADTATYFCARVPYAGYVNYGYTFFNLWGPGTLVTVSS
VL: AAVLTQTPSPVSAPVGGTVTISCQSSQSVYRTNDLAWYQQKPGQPPKLLIYWASKLAAGVPSRFKGSGSGTQFTLTISGVQCDDAATYYCLGGYYDDGDLNAFGGGTEVVVN
notes: Rabbit monoclonal antibody; also called 33A8-1
B2: 34C5 (antibody, V domains shown)
VH: QSVEESGGRLVKPDESLTLTCTVSGFSLSAYEMGWVRQAPGKGLEWIAAISTGDTPYYATWTKGRFTISRASSTTVDLKMTSPTTEDTATYFCARYGHNYEYVFDLWGQGTLVTVSS
VL: AYDMTQTPASVSAAVGGTVTINCQASQSIGSYLSWYQQKPGQPPKLLIYSASTLASGVPSRFSGSGYGTEFTLTIGGVQCDDAAAYYCQQGESIGSVHNVFGGGTEVVVA
notes: Rabbit monoclonal antibody; also called 34C5-1
B3: 34H7 (antibody, V domains shown)
VH: QSLEESGGDLVKPGASLTLTCTASGFSLNNYVMYWVRQAPGKGLESIACIYTGSGTTYYATWAKGRFTISKTSSTTVTLQMTSLTAADTATYFCARRTYTSDSYAGSFNLWGPGTLVTVSS
VL: AYDMTQTPASVSEPVGGTVTIKCQASQSIGSNLAWYQQKPGQRPKLLIYAASYLASGAPSRFKGSGSGTEFTLTISGVQCDDAATYYCQQGWSSSDVDSTFGGGTEVVVK
notes: Rabbit monoclonal antibody; also called 34H7-1; 37H7
B4: 36D12 (antibody, V domains shown)
VH: QSVEESGGRLVTPGTPLTLTCTVSGFSLSTYAMGWFRQAPGKGLEWIGTIWSGAFTDYANWVNGRFTISKTSTTVDLKITSPTTEDTATYFCAREADSDLYTYFKLWGPGTLVTVSS
VL: AYDMTQTPASVEVAVGGTVTLKCQASESIEIYLAWYQQKPGQPPKLLVYDASTLASGVPSRFKGSGSGTQFTLTISGVECADAATYYCQQGYRSDNVHNVFGGGTEVVVK
notes: Rabbit monoclonal antibody; also called 36D12-1
B5: 42D10 (antibody, V domains shown)
VH: QSVEESGGRLVTPGTPLTLTCTVSGFSLSSYAMTWVRQAPGKGLEWIGYIYAGGIADYANWAKGRFTISKTSTTVDLTITSPTTEDTATYFCAREGDSDDYVYLSLWGPGTLVTVSS
VL: ALVMTQTPSSVSAAVGGTVTINCQASQSIVGYLAWYQQKPGQPPKLLIYRASTLASGVSSRFKGSGSGTEFTLTISGVQCADAATYYCQQGYINSNIDNTFGGGTEVVVK
notes: Rabbit monoclonal antibody; also called 42D10-1
B6: anti-ORF1 Nb trimer Nb5-Nb5-Nb5 (MT996) (bispecific antibody)
chain: QVQLVESGGDLVQAGGSLRLSCAVSGGTSSNYGMGWFRQAPGKEREFVSSISWSGSRTLYSDSVKGRFTISRDNAKNTVDLQMNSLKPEDTAVYYCTAVREYRDYPQRDNFDYWGQGTQVTVSGGGGSGGGGSGGGGSGGGGSMAQVQLVESGGDLVQAGGSLRLSCAVSGGTSSNYGMGWFRQAPGKEREFVSSISWSGSRTLYSDSVKGRFTISRDNAKNTVDLQMNSLKPEDTAVYYCTAVREYRDYPQRDNFDYWGQGTQVTVSGGGGSGGGGSGGGGSGGGGSMAQVQLVESGGDLVQAGGSLRLSCAVSGGTSSNYGMGWFRQAPGKEREFVSSISWSGSRTLYSDSVKGRFTISRDNAKNTVDLQMNSLKPEDTAVYYCTAVREYRDYPQRDNFDYWGQGTQVTVSHHHHHH
notes: Homotrimeric tandem nanobody; also called Nb 5-5-5
B7: anti-ORF1 Nb dimer 5 Nb5-Nb2 (MT995) (bispecific antibody)
chain: QVQLVESGGDLVQAGGSLRLSCAVSGGTSSNYGMGWFRQAPGKEREFVSSISWSGSRTLYSDSVKGRFTISRDNAKNTVDLQMNSLKPEDTAVYYCTAVREYRDYPQRDNFDYWGQGTQVTVSGGGGSGGGGSGGGGSGGGGSMADVQLVESGGGLVQAGGSLRLSCAASGRTDDIYTMGWFRQGPGKEREFVAVISWSITRRSSITHYADSVKGRFTISGENAENTVYLQMNTLKPEDTAVYYCAAKTGYSGSMSSYQDYDSWGQGTQVTVSHHHHHH
notes: Heterodimeric tandem nanobody, short linker; also called Nb 5-2; Nb5-2 pMT995
B8: anti-ORF1 Nb dimer 3 Nb5-Nb5 (MT993) (bispecific antibody)
chain: QVQLVESGGDLVQAGGSLRLSCAVSGGTSSNYGMGWFRQAPGKEREFVSSISWSGSRTLYSDSVKGRFTISRDNAKNTVDLQMNSLKPEDTAVYYCTAVREYRDYPQRDNFDYWGQGTQVTVSGGGGSGGGGSGGGGSGGGGSMAQVQLVESGGDLVQAGGSLRLSCAVSGGTSSNYGMGWFRQAPGKEREFVSSISWSGSRTLYSDSVKGRFTISRDNAKNTVDLQMNSLKPEDTAVYYCTAVREYRDYPQRDNFDYWGQGTQVTVSHHHHHH
notes: Homodimeric tandem nanobody, short linker; also called Nb 5-5; Nb5-5
B9: anti-ORF1 Nb dimer 4 Nb5-Nb1 (MT994) (bispecific antibody)
chain: QVQLVESGGDLVQAGGSLRLSCAVSGGTSSNYGMGWFRQAPGKEREFVSSISWSGSRTLYSDSVKGRFTISRDNAKNTVDLQMNSLKPEDTAVYYCTAVREYRDYPQRDNFDYWGQGTQVTVSGGGGSGGGGSGGGGSGGGGSMADVQLVESGGGLVQAGESLRLSCAASGRTLSSLNMAWFRQVPGKERDFVSLISRSGSTDYVHSVRGRFTISRDNAKNTVYLEMNSLKPEDTAVYYCAADDNYNGRYPFRDEYEYWGQGTQVTVSHHHHHH
notes: Heterodimeric tandem nanobody, short linker; also called Nb 5-1; Nb5-1 pMT994
B10: anti-ORF1 Nanobody 5 (Nb5) (VHH)
VHH: QVQLVESGGDLVQAGGSLRLSCAVSGGTSSNYGMGWFRQAPGKEREFVSSISWSGSRTLYSDSVKGRFTISRDNAKNTVDLQMNSLKPEDTAVYYCTAVREYRDYPQRDNFDYWGQGTQVTVSH
notes: Llama nanobody; also called Clone 5; C5
B11: anti-ORF1 Nanobody 9 (Nb9) (VHH)
VHH: QVHLVESGGKLVQAGESLKLSCEVSGRTFSISGAGWFRQAPGKEREFVAAITWTGGYPYYDASVKGRFTISREDPDNTVYLSMNSLKPEDTAVYYCATRRAGDLDFSYAQQGRYDNWGQGTQVTVSH
notes: Llama nanobody
B12: anti-ORF1 Nanobody 10 (Nb10) (VHH)
VHH: QVQLVESGGGLVQAGESLRLSCQVSGRTFSISGAGWFRQAPGKEREFVAAITWTGGYPYYATSVKGRFTIARDDPENRVYLSMNSLKPEDTAVYYCATRRAGSLDFDYAQQTRYDNWGQGTQVTVSH
notes: Llama nanobody
B13: anti-ORF1 Nanobody 21 (Nb21) (VHH)
VHH: QVQLAESGGGLVQAGGSLRLSCAASGRTSTIYIMGWFRQAPGKDREFVAGITYTGGYPYYADSVQGRFTLSNDNADHTAYLQMNNLKPEDSAVYYCAARSRGGITTHERDFGSWGQGTQVTVSH
notes: Llama nanobody
B14: anti-ORF1 Nanobody 2 (Nb2) (VHH)
VHH: DVQLVESGGGLVQAGGSLRLSCAASGRTDDIYTMGWFRQGPGKEREFVAVISWSITRRSSITHYADSVKGRFTISGENAENTVYLQMNTLKPEDTAVYYCAAKTGYSGSMSSYQDYDSWGQGTQVTVSH
notes: Llama nanobody
B15: anti-ORF1 Nb dimer 2 Nb2-Nb2 (MT992) (VHH)
chain: DVQLVESGGGLVQAGGSLRLSCAASGRTDDIYTMGWFRQGPGKEREFVAVISWSITRRSSITHYADSVKGRFTISGENAENTVYLQMNTLKPEDTAVYYCAAKTGYSGSMSSYQDYDSWGQGTQVTVSGGGGSGGGGSGGGGSGGGGSMADVQLVESGGGLVQAGGSLRLSCAASGRTDDIYTMGWFRQGPGKEREFVAVISWSITRRSSITHYADSVKGRFTISGENAENTVYLQMNTLKPEDTAVYYCAAKTGYSGSMSSYQDYDSWGQGTQVTVSHHHHHH
notes: Homodimeric tandem nanobody, short (GGGGS)x4 linker; also called Nb 2-2; Nb2-2 pMT992
B16: anti-ORF1 Nb dimer 6 Nb5-Nb5 long linker (MT997) (bispecific antibody)
chain: QVQLVESGGDLVQAGGSLRLSCAVSGGTSSNYGMGWFRQAPGKEREFVSSISWSGSRTLYSDSVKGRFTISRDNAKNTVDLQMNSLKPEDTAVYYCTAVREYRDYPQRDNFDYWGQGTQVTVSGGGGSGGGGSGGGGSGGGGSEAAAKEAAAKEAAAKSGGGGSGGGGSGGGGSGGGGSMAQVQLVESGGDLVQAGGSLRLSCAVSGGTSSNYGMGWFRQAPGKEREFVSSISWSGSRTLYSDSVKGRFTISRDNAKNTVDLQMNSLKPEDTAVYYCTAVREYRDYPQRDNFDYWGQGTQVTVSHHHHHH
notes: Homodimeric tandem nanobody, long linker of 56 residues; also called Nb 5-5 long; Nb5-5LL

biological target: T1, recombinant human ORF1p (LINE-1 open reading frame 1 protein, L1RP) (human, UniProt Q9UN81 1-338); experiment: Simoa sandwich, recombinant ORF1p at 40 pg/mL in diluent buffer, signal/background heat map; capture on the x axis, detector on the y axis
T1 construct: Expressed in E. coli, tag cleaved, monodisperse homotrimer; Immobilized on the CM5 chip in SPR; also called trimeric ORF1p
T1 sequence: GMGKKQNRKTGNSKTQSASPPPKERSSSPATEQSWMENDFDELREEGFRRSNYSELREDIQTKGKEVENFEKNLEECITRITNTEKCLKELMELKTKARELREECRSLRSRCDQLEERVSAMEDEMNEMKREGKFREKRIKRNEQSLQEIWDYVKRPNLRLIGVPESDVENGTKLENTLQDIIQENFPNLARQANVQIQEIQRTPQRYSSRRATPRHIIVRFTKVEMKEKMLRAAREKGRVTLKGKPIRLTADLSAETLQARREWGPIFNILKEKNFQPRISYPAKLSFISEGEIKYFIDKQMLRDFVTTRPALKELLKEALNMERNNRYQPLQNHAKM
Description: ORF1p Simoa assays. Simoa assays were performed on an HD-X Analyzer (Quanterix Corp.), with all assay reagents and consumables loaded onto the instrument according to the manufacturer's instructions. 250,000 capture beads and 250,000 helper (non-conjugated) beads were used in each Simoa assay. A three-step assay configuration was used for the first- and second-generation assays, consisting of a 15-minute target capture step (incubation of capture beads with 100 μL sample), 5-minute incubation with detector reagent (0.3 μg/mL for both first- and second-generation assays), and 5-minute incubation with streptavidin-β-galactosidase (150 pM for first-generation assay; 300 pM for second-generation assays). The beads were washed with System Wash Buffer 1 (Quanterix Corp.) after each assay step. Upon the final wash cycle, the beads were loaded together with the fluorogenic enzyme substrate resorufin β-D-galactopyranoside into a 216,000-microwell array, which was subsequently sealed with oil. Automated imaging and counting of “on” and “off” wells and calculation of average enzyme per bead (AEB) were performed by the instrument. Calibration curves were fit using a 4PL fit with a 1/y² weighting factor, and the limit of detection (LOD) was determined as three standard deviations above the blank.
Signal/background was also determined for a number of the pairs by Simoa using recombinant ORF1p protein in diluent buffer; the results are shown in FIG. 15. When the rabbit monoclonal antibodies were used as capture and detector, the background was high. The best combinations were the rabbit monoclonal antibodies as capture/Ab6 detector; Nb5-5 capture/rabbit monoclonal antibodies detector; and 4H1 capture/rabbit monoclonal antibody detector pairs.

Q: Does B1 bind?
A: Result: binds

Q: Does B2 bind?
A: Result: binds

Q: Does B3 bind?
A: Result: binds

Q: Does B4 bind?
A: Result: binds

Q: Does B5 bind?
A: Result: binds

biological target: T1, recombinant human ORF1p (LINE-1 open …); experiment: SPR (Biacore 8K), ORF1p immobilized on CM5, single-cycle kinetics, 1:1 fit
Description: Surface plasmon resonance (SPR) assays. Binding kinetics (kₐ, kd, and KD) of antibody and nanobody constructs for ORF1p were obtained on a Biacore 8K instrument (Cytiva). Recombinant ORF1p was immobilized on a Series S CM5 sensor chip at 1.5 μg/ml using EDC/NHS coupling chemistry according to the manufacturer's guidelines. Nanobodies and antibodies were prepared as analytes and run in buffer containing 20 mM HEPES pH 7.4, 150 mM NaCl, and 0.05% Tween-20. Analytes were injected at 30 μl/min in single-cycle kinetics experiments at concentrations of 0.1, 0.3, 1, 3.3, and 10 nM, with association times of 120-180 sec, and a dissociation time of 1200-7200 sec, depending on observed off-rate. Residual bound protein was removed between experiments using 10 mM glycine-HCl pH 3.0. Data were analyzed using Biacore software, fitting a Langmuir 1:1 binding model to sensorgrams to calculate kinetic parameters.

Q: Which Kd does the source give for B6 here?
A: Its Kd is 0.027 nM.

Q: For B7, which Kd is on record?
A: Its Kd is 0.036 nM.

Q: How did the Kd turn out when B8 was run?
A: Its Kd is 0.07 nM.

Q: How did the Kd turn out when B9 was run?
A: The Kd was 0.083 nM.

Q: For B10, which Kd is on record?
A: Its Kd is 0.11 nM.

Q: How did the Kd turn out when B11 was run?
A: Its Kd is 0.19 nM.

Q: How did the Kd turn out when B12 was run?
A: The Kd was 0.19 nM.

Q: For B13, which Kd is on record?
A: The Kd was 0.24 nM.

Q: How did the Kd turn out when B14 was run?
A: Its Kd is 0.48 nM.

Q: Which Kd does the source give for B15 here?
A: The Kd was 0.0092 nM.

Q: B16 was tested. Which Kd did it give?
A: The Kd was 0.0098 nM.
